Consider four molecules from US20030104507A1, “Method for detection of ATP” (priority 2001, published 2003).

Data set [1] deals with native firefly luciferase (Photinus pyralis, UniProt P08659). To be noted: cited from earlier work.
The test system of another data set is LucPpe2m90. It is filed as biochemical, Photuris pennsylvanica. The settings on record: for Half life: buffer; for Average rlu: 37° C. As to the method:
(§1) The stability of a reagent composition composition comprising LucPpe2 luciferase was compared to a reagent composition comprising LucPpe2m90 and a reagent composition comprising LucPpe2m146, in the presence and absence of 0.1% DTAB. These mutant luciferases are thermostable; they are described in detail in PCT application PCT/US99/30925, filed Dec. 22, 1999.
(§2) Each enzyme was diluted to 0.05 mg/ml to a final volume of 1.0 ml in either 25 mM HEPES, pH 8.0 or 20 mM citrate, pH 6.0; both with 100 mM NaCl, 1 mM EDTA, 0.1% gelatin and 5% glycerol. In half of the samples, 0.1% DTAB was added. The enzyme solutions (“reagent compositions”) were incubated at 37° C.
(§3) At various timepoints, 10 μl of enzyme solution was transferred to a 96-well luminometer plate in triplicate. Then, in triplicate, 100 μl room temperature luciferase assay reagent (1 mM luciferin, 0.2 mM ATP, 10 MM MgSO4 in 50 mM HEPES, pH 8.0) was added to each 10 μl enzyme solution aliquot, mixed and immediately read in a Dynex MLX microtiter plate luminometer. The ATP in the luciferase assay reagent is at a saturating concentration. The average rlu values are reported, as are the half lives of the reagent composition activity as measured by luminescence (Table P). Half-life was calculated using the formula log (0.5)/slope of the data plotted as time (x axis) versus log value of rlu. The time zero is actually about 2-3 minutes after the mixing of enzyme and substrate; this could account for the lower numbers in the presence of DTAB at time 0 than in the absence of DTAB.

The next data set deals with LucPpe2m146. It is filed as biochemical, Photuris pennsylvanica. The settings on record: for Half life: buffer; for Average rlu: 37° C. The procedure: as §1, §2, §3

Like-named read-outs stand apart in the source and are kept apart here.

Sequence of native firefly luciferase (P08659 whole entry): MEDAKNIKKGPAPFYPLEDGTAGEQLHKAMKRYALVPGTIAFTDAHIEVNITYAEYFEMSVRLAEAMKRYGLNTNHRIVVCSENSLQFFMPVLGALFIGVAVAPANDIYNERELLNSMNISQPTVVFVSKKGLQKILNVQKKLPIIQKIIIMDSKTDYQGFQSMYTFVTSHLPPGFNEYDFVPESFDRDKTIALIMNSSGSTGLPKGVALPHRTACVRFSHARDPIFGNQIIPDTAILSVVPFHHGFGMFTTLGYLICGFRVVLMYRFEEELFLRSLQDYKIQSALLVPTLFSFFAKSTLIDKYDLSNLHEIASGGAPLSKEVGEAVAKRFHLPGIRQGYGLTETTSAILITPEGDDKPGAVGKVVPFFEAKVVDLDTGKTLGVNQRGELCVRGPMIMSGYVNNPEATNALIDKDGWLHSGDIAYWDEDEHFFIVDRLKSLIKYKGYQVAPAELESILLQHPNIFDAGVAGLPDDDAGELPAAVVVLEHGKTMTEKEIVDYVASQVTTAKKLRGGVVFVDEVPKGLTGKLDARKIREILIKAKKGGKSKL

Take `Cc1cc(C(C)(C)CC(C)(C)C)ccc1OCCOCC[N+](C)(C)Cc1ccccc1.[Cl-]` [methylbenzethonium chloride]: the “effect on native firefly luciferase” value in data set [1] is on record as “inactivated”.
As for benzalkonium chloride, in data set [1], the “effect on native firefly luciferase” value was “inactivated”.

B1: LucPpe2m90: mutant luciferase derived from LucPpe2, SEQ ID NO:2 (protein)
chain: MADKNILYGPEPFYPLEDGTAGEQMFDALSRYADIPGCIALTNAHTKENVLYEEFLKLSCRLAESFKKYGLKQNDTIAVCSENGLQFFLPVIASLYLGIIVAPVNDKYIERELIHSLGIVKPRIVFCSKNTFQKVLNVKSKLKSIETIIILDLNEDLGGYQCLNNFISQNSDSNLDVKKFKPYSFNRDDQVALIMFSSGTTGLPKGVMLTHKNIVARFSLAKDPTFGNAINPTTAILTVIPFHHGFGMMTTLGYFTCGFRVVLMHTFEEKLFLQSLQDYKVESTLLVPTLMAFLAKSALVEKYDLSHLKEIASGGAPLSKEIGEMVKKRFKLNFVRQGYGLTETTSAVLITPKGDAKPGSTGKIVPFHAVKVVDPTTGKILGPNEPGELYFKGPMIMKGYYNNEEATKAIIDNDGWLRSGDIAYYDNDGHFYIVDRLKSLIKYKGYQVAPAEIEGILLQHPYIVDAGVTGIPDEAAGELPAAGVVVQTGKYLNEQIVQDYVASQVSTAKWLRGGVKFLDEIPKGSTGKIDRKVLRQMFEKHTNG
modifications: Mutant of LucPpe2 luciferase
Turning to B1, the figures for the “Half life” value in the data set with LucPpe2m90 (pH 6) and in the data set on LucPpe2m90 (pH 8) were 8.508 h and 8.125 h, respectively. Moreover, the Average rlu with LucPpe2m90 (pH 6.0 + 0.1% DTAB, 0 min) was determined as 16263.53 rlu; with LucPpe2m90 (pH 6.0 + 0.1% DTAB, 59 min), 15535.4 rlu; in the data set with LucPpe2m90 (pH 6.0 + 0.1% DTAB, 123 min) it was 13421.5 rlu; in the data set on LucPpe2m90 (pH 6.0 + 0.1% DTAB, 183 min) it was 14061.8 rlu; in the data set on LucPpe2m90 (pH 6.0 + 0.1% DTAB, 239 min), 11924.03 rlu; in the data set with LucPpe2m90 (pH 6.0, 0 min) it was 20031.03 rlu. Moreover, the Average rlu is 18453 rlu in the data set with LucPpe2m90 (pH 6.0, 59 min); 15966.03 rlu in the data set with LucPpe2m90 (pH 6.0, 123 min); 15546.4 rlu in the data set with LucPpe2m90 (pH 6.0, 183 min); 14519.63 rlu in the data set on LucPpe2m90 (pH 6.0, 239 min); 22401.4 rlu with LucPpe2m90 (pH 8.0 + 0.1% DTAB, 0 min); 15332.67 rlu in the data set on LucPpe2m90 (pH 8.0 + 0.1% DTAB, 59 min). Also, the Average rlu is 12383.75 rlu in the data set on LucPpe2m90 (pH 8.0 + 0.1% DTAB, 123 min); 11271.25 rlu in the data set with LucPpe2m90 (pH 8.0 + 0.1% DTAB, 183 min); 9551.65 rlu in the data set on LucPpe2m90 (pH 8.0 + 0.1% DTAB, 239 min); 15795.17 rlu with LucPpe2m90 (pH 8.0, 0 min); 15510.77 rlu in the data set with LucPpe2m90 (pH 8.0, 59 min); 13735.67 rlu in the data set on LucPpe2m90 (pH 8.0, 123 min). Further, the Average rlu worked out at 13271.05 rlu in the data set with LucPpe2m90 (pH 8.0, 183 min) and 11115.13 rlu with LucPpe2m90 (pH 8.0, 239 min).

B2: LucPpe2m146: mutant luciferase derived from LucPpe2, SEQ ID NO:4 (protein)
chain: MADKNILYGPEPFYPLEDGTAGEQMFDALSRYAAIPGCIALTNAHTKENVLYEEFLKLSCRLAESFKKYGLKQNDTIAVCSENSLQFFLPVIASLYLGIIVAPVNDKYIERELIHSLGIVKPRIVFCSKNTFQKVLNVKSKLKSIETIIILDLNEDLGGYQCLNNFISQNSDSNLDVKKFKPYSFNRDDQVASIMFSSGTTGLPKGVMLTHKNIVARFSIAKDPTFGNAINPTSAILTVIPFHHGFGMMTTLGYFTCGFRVVLMHTFEEKLFLQSLQDYKVESTLLVPTLMAFLAKSALVEKYDLSHLKEIASGGAPLSKEIGEMVKKRFKLNFVRQGYGLTETTSAVLITPKGDAKPGSTGKIVPLHAVKVVDPTTGKILGPNEPGELYFKGPMIMKGYYNNEEATKAIIDNDGWLRSGDIAYYDNDGHFYIVDRLKSLIKYKGYQVAPAEIEGILLQHPYIVDAGVTGIPDEAAGELPAAGVVVQTGKYLNEQIVQDYVASQVSTAKWLRGGVKFLDEIPKGSTGKIDRKVLRQMLEKHTNG
modifications: Mutant of LucPpe2 luciferase
B2: the “Half life” value in the data set with LucPpe2m146 (pH 6) came to 13.68 h; in the data set on LucPpe2m146 (pH 8) it was 9.925 h. The Average rlu in the data set with LucPpe2m146 (pH 6.0 + 0.1% DTAB, 0 min) was 5945.34 rlu; in the data set with LucPpe2m146 (pH 6.0 + 0.1% DTAB, 61 min) it was 5989.65 rlu; in the data set with LucPpe2m146 (pH 6.0 + 0.1% DTAB, 125 min), 3754.71 rlu; with LucPpe2m146 (pH 6.0 + 0.1% DTAB, 183 min) it was 4839.58 rlu; in the data set on LucPpe2m146 (pH 6.0 + 0.1% DTAB, 237 min), 4951.0 rlu; in the data set with LucPpe2m146 (pH 6.0, 0 min), 7685.01 rlu. The Average rlu was 7077.29 rlu in the data set on LucPpe2m146 (pH 6.0, 61 min); 5507.01 rlu with LucPpe2m146 (pH 6.0, 125 min); 6144.94 rlu in the data set on LucPpe2m146 (pH 6.0, 183 min); 6471.76 rlu in the data set with LucPpe2m146 (pH 6.0, 237 min); 6445.57 rlu with LucPpe2m146 (pH 8.0 + 0.1% DTAB, 0 min); 6214.56 rlu with LucPpe2m146 (pH 8.0 + 0.1% DTAB, 61 min). Moreover, the Average rlu with LucPpe2m146 (pH 8.0 + 0.1% DTAB, 125 min) stood at 4018.92 rlu; in the data set on LucPpe2m146 (pH 8.0 + 0.1% DTAB, 183 min), 4020.56 rlu; with LucPpe2m146 (pH 8.0 + 0.1% DTAB, 237 min), 3734.59 rlu; in the data set on LucPpe2m146 (pH 8.0, 0 min), 6652.84 rlu; in the data set with LucPpe2m146 (pH 8.0, 61 min), 6577.91 rlu; in the data set with LucPpe2m146 (pH 8.0, 125 min), 5192.73 rlu. Also, the Average rlu in the data set with LucPpe2m146 (pH 8.0, 183 min) was found to be 5476.86 rlu; in the data set on LucPpe2m146 (pH 8.0, 237 min), 5174.22 rlu.
